Type in all cases: biochemical, Trichoderma reesei
Substrate in series [1]: [H][C@@]1(O[C@H]2[C@H](O)[C@@H](O)[C@H](Oc3ccc([N+](=O)[O-])cc3)O[C@@H]2CO)O[C@H](CO)[C@H](O)[C@H](O)[C@H]1O
The experiment in a line: pNP-Lactopyranoside (pNP-L) assay, kinetics, TrCel7A 1-1d. The following applies: other: TrCel7A 1-1d, 45° C., 30 minutes, pNP-L 8 mM-0.133 mM. From the text:
(§1) The wild-type (wt) TrCel7A sequence was aligned with all the high-pNP-L activity sequences in order to identify the corresponding positions of mutations in TrCel7A. Without being bound by theory, these mutations should result in improving pNP-L activity of TrCel7A. PCR-based point mutagenesis or gene synthesis was used to generate the corresponding 9 TrCel7A mutants.
(§2) Cel7A was purified as described in Linger et al., Biotechnol Biofuels 8:45 (2015). Briefly, fermentation broths (˜8 to 10 L) were harvested, vacuum filtered, concentrated, and then loaded onto a 26/10 Phenyl Sepharose Fast Flow column. Buffer A was 20 mM Bis-Tris pH 6.5 and buffer B was 20 mM Bis-Tris pH 6.5, 2.0 M (NH4)2SO4. After binding and washing, a descending gradient of 80% B (1.6 M (NH4)2SO4) to 0% B over eight column volumes was used to elute the bound proteins from the column. Active fractions were identified by a p-nitrophenyl-β-(1-4)-D-lactopyranoside (pNP-L) activity assay. The pNP-L-active fractions were pooled and concentrated as needed. Protein was desalted and exchanged into 20 mM Bis-Tris buffer pH 6.5. […]
(§3) The pNP-L assay was performed by incubating 150 μL of 2 mM pNP-L with 25 μL of sample at 45° C. for 30 minutes. Reactions were quenched with 25 μL of 1 M Na2CO3, and the absorbance at 405 nm was measured. […]

Substrate in series [2]: [H][C@@]1(O[C@H]2[C@H](O)[C@@H](O)[C@H](Oc3ccc([N+](=O)[O-])cc3)O[C@@H]2CO)O[C@H](CO)[C@H](O)[C@H](O)[C@H]1O
Kind of series: pNP-Lactopyranoside (pNP-L) assay, kinetics, TrCel7A 11-35a. The following applies: other: TrCel7A 11-35a, 45° C., 30 minutes, pNP-L 8 mM-0.133 mM.
From the text: as §1, §2, §3

Substrate in series [3]: [H][C@@]1(O[C@H]2[C@H](O)[C@@H](O)[C@H](Oc3ccc([N+](=O)[O-])cc3)O[C@@H]2CO)O[C@H](CO)[C@H](O)[C@H](O)[C@H]1O
Kind of series: pNP-Lactopyranoside (pNP-L) assay, kinetics, TrCel7A 2-18c. The settings on record: other: TrCel7A 2-18c, 45° C., 30 minutes, pNP-L 8 mM-0.133 mM.
From the text: as §1, §2, §3

Substrate in series [4]: [H][C@@]1(O[C@H]2[C@H](O)[C@@H](O)[C@H](Oc3ccc([N+](=O)[O-])cc3)O[C@@H]2CO)O[C@H](CO)[C@H](O)[C@H](O)[C@H]1O
The experiment in a line: pNP-Lactopyranoside (pNP-L) assay, kinetics, TrCel7A 6-87a. The settings on record: other: TrCel7A 6-87a, 45° C., 30 minutes, pNP-L 8 mM-0.133 mM.
From the text: as §1, §2, §3

Substrate in series [5]: [H][C@@]1(O[C@H]2[C@H](O)[C@@H](O)[C@H](Oc3ccc([N+](=O)[O-])cc3)O[C@@H]2CO)O[C@H](CO)[C@H](O)[C@H](O)[C@H]1O
The experiment in a line: pNP-Lactopyranoside (pNP-L) assay, kinetics, TrCel7A WT. The following applies: other: TrCel7A WT, 45° C., 30 minutes, pNP-L 8 mM-0.133 mM. Here is the method: as §2, with “6.5. This sample was then loaded onto a Tricorn 10/100 anion exchange column packed with Source 15Q and eluted with a 0-50% salt gradient over 30 column volumes. Buffers were 20 mM Bis-Tris pH 6.5 (A) and the same supplemented with 1.0 M NaCl (B). pNP-L activity was followed again to identify the active fractions.” for “6.5.”
as §3

Substrate in series [6]: [H][C@@]1(O[C@H]2[C@H](O)[C@@H](O)[C@H](Oc3ccc([N+](=O)[O-])cc3)O[C@@H]2CO)O[C@H](CO)[C@H](O)[C@H](O)[C@H]1O
The experiment in a line: pNP-Lactopyranoside (pNP-L) assay, kinetics, TrCel7A 1-11. The following applies: other: TrCel7A 1-11, 45° C., 30 minutes, pNP-L 8 mM-0.133 mM.
From the text: as §1, §2, §3

Substrate in series [7]: [H][C@@]1(O[C@H]2[C@H](O)[C@@H](O)[C@H](Oc3ccc([N+](=O)[O-])cc3)O[C@@H]2CO)O[C@H](CO)[C@H](O)[C@H](O)[C@H]1O
The experiment in a line: pNP-Lactopyranoside (pNP-L) assay, kinetics, TrCel7A 6-53a. The following applies: other: TrCel7A 6-53a, 45° C., 30 minutes, pNP-L 8 mM-0.133 mM.
From the text: as §1, §2, §3

Residue numbers refer to the chain shown, from its start. Names may count otherwise.

B1: Trichoderma reesei Cel7A (TrCel7A, SEQ ID NO: 37) variant 1-1d, A241V (with secretion signal) / A224V (without secretion signal) (Trichoderma reesei RUT C-30; … (protein)
chain: QSACTLQSETHPPLTWQKCSSGGTCTQQTGSVVIDANWRWTHATNSSTNCYDGNTWSSTLCPDNETCAKNCCLDGAAYASTYGVTTSGNSLSIGFVTQSAQKNVGARLYLMASDTTYQEFTLLGNEFSFDVDVSQLPCGLNGALYFVSMDADGGVSKYPTNTAGAKYGTGYCDSQCPRDLKFINGQANVEGWEPSSNNANTGIGGHGSCCSEMDIWEANSISEVLTPHPCTTVGQEICEGDGCGGTYSDNRYGGTCDPDGCDWNPYRLGNTSFYGPGSSFTLDTTKKLTVVTQFETSGAINRYYVQNGVTFQQPNAELGSYSGNELNDDYCTAEEAEFGGSSFSDKGGLTQFKKATSGGMVLVMSLWDDYYANMLWLDSTYPTNETSSTPGAVRGSCSTSSGVPAQVESQSPNAKVTFSNIKFGPIGSTGNPSGGNPPGGNPPGTTTTRRPATTTGSSPGPTQSHYGQCGGIGYSGPTVCASGTTCQVLNPYYSQCL
A word on the kcat: it is the number of substrate molecules converted per active site and unit of time at saturation. B1: the kcat in series [1] is 0.933 ± 0.0667 s⁻¹.

B2: Trichoderma reesei Cel7A (TrCel7A, SEQ ID NO: 37) variant 11-35a, G461D (with secretion signal) / G444D (without secretion signal) (Trichoderma reesei RUT … (protein)
chain: B1 chain with V224A, G444D
With B2, the turnover number (kcat) in series [2] came out at 0.183 s⁻¹.

B3: Trichoderma reesei Cel7A (TrCel7A, SEQ ID NO: 37) variant 2-18c, T406S/A389V (with secretion signal) / T389S/A372V (without secretion signal) (Trichoderma … (protein)
chain: B1 chain with V224A, A372V, T389S
As a reminder, the Km is the concentration of substrate that gives half-maximal velocity. As for B3, in series [3], the Km was 1980 ± 180 µM and the kcat came to 0.467 ± 0.117 s⁻¹.

B4: Trichoderma reesei Cel7A (TrCel7A, SEQ ID NO: 37) variant 6-87a, D274V (with secretion signal) / D257V (without secretion signal) (Trichoderma reesei RUT C-30; … (protein)
chain: B1 chain with V224A, D257V
In the case of B4, the kcat in series [4] turned out to be 0.4 ± 0.0667 s⁻¹.

B5: Trichoderma reesei Cel7A (TrCel7A) wild-type, SEQ ID NO: 37 (Trichoderma reesei RUT C-30) (protein)
chain: B1 chain with V224A
As for B5, in series [5], the kcat was found to be 0.333 ± 0.0167 s⁻¹.

B6: Trichoderma reesei Cel7A (TrCel7A, SEQ ID NO: 37) variant 1-11, L366M (with secretion signal) / L349M (without secretion signal) (Trichoderma reesei RUT C-30; … (protein)
chain: B1 chain with V224A, L349M
Regarding B6, in series [6], the kcat is 0.182 ± 0.00333 s⁻¹.

B7: Trichoderma reesei Cel7A (TrCel7A, SEQ ID NO: 37) variant 6-53a, I110M/Y283N/T462I (with secretion signal) / I93M/Y266N/T445I (without secretion signal) … (protein)
chain: B1 chain with I93M, V224A, Y266N, T445I
B7: the kcat in series [7] was 0.35 ± 0.05 s⁻¹.
